From patent US20150361165A1 (SYDDANSK UNIVERSITET, published 2015) come the findings set out here.

Assay [1] has as its target T1, mouse MFAP4 in tissue (mouse aorta) (mouse, UniProt Q9D1H9 23-257).
T1 construct: Native protein detected by immunohistochemistry; signal absent in mfap4-/- tissue; also called mouse MFAP4 homologue
T1 sequence (looked up): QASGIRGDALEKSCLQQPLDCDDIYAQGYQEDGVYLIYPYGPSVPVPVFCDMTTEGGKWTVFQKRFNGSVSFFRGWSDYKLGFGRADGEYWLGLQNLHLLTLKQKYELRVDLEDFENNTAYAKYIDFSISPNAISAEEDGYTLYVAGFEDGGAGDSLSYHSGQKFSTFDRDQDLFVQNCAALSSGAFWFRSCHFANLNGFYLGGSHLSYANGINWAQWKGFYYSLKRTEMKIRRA
Nature of the assay: immunohistochemistry on mouse aorta; no signal in mfap4-/- tissue.

Assay [2] deals with T2, human MFAP4 in tissue (human mammary artery) (human, UniProt P55083 22-255).
T2 construct: Native protein detected by immunohistochemistry
T2 sequence (looked up): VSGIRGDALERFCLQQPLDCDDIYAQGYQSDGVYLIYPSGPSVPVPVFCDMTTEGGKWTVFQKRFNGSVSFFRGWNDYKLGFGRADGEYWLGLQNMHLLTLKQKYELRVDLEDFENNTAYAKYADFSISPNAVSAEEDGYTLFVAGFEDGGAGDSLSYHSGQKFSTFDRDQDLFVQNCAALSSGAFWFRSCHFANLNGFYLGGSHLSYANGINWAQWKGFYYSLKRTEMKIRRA
The assay can be described thus: immunohistochemistry on human mammary artery.

B1: HG-HYB 7-14 (antibody, V domains shown)
VH: EVKVVESGGGLVQPGGSLRLSCATSGFTFSDFYMEWVRQPPGKRLEWIAASRNKANDYTTEYSASVKGRFIVSRDTSQSILYLQLNALRAEDTAIYYCARNYYDSSYWYFDVWGAGTTVTVSS
VL: DIVLTQSPSYLAASPGETITINCRASKSISKYLAWYQERPGKTNKLLIYSGSTLQSGIPSRFSGSGSGTDFTLTISSLEPEDFAMYYCQQHNEYPFTFGAGTKLELK
notes: Monoclonal antibody raised in MFAP4-deficient C57BL/6N mice against rMFAP4; also called FITC-anti-MFAP4 (HG-HYB 7-14)
Take B1: the binding result in assay [1] and in assay [2] was “binds” throughout.
